According to article PMC11463501 (bioRxiv, 2024):
Numbering of substitutions follows the chain as printed. In names and notes the source's numbering stands.

Columns and labels:
[1] = biological target: T1, PTg S5 subunit (Bordetella pertussis, UniProt P04981 35-133); test: cryo-EM structure
T1 sequence: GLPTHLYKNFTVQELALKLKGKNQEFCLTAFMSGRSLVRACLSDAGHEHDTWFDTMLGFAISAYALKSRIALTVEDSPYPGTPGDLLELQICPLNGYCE

[2] = biological target: Pertussis toxin (PT), enzymatically active (Bordetella pertussis; strain of bought …, UniProt P04977;P04978;P04979;P0A3R5;P04981); test: ELISA
Sequence of Pertussis toxin (PT), enzymatically active (P04978 28-226, chain 2 of 3): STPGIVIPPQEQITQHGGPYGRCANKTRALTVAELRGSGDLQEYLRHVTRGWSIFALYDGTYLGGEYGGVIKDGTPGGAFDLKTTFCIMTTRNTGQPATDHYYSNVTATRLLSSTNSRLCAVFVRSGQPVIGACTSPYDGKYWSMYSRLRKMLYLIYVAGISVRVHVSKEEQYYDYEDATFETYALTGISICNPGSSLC
Sequence of Pertussis toxin (PT), enzymatically active (P04979 29-227, chain 3 of 3): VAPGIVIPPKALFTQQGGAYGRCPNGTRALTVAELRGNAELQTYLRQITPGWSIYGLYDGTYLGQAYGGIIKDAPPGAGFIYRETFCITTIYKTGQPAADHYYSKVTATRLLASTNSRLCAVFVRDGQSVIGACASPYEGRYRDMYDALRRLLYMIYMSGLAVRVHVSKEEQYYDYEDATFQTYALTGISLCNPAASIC
Sequence of Pertussis toxin (PT), enzymatically active (P0A3R5 43-152, chain 4 of 3): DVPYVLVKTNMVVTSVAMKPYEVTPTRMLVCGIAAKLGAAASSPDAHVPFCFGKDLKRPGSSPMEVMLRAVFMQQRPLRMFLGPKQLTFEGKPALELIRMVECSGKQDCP

[3] = biological target: PTg S5 subunit (Bordetella pertussis, UniProt P04981); test: cryo-EM structure
[4] = biological target: PTg S2 subunit (Bordetella pertussis, UniProt P04978); test: cryo-EM structure
Sequence of PTg S2 subunit (P04978 28-226): as the sequence (P04978 28-226, chain 2 of 3) above

[5] = biological target: PTg S3 subunit (Bordetella pertussis, UniProt P04979); test: cryo-EM structure
Sequence of PTg S3 subunit (P04979 29-227): as the sequence (P04979 29-227, chain 3 of 3) above

B1: PTg S1 subunit ([change], [change]) (natural protein)
chain: DDPPATVYKYDSRPPEDVFQNGFTAWGNNDNVLDHLTGRSCQVGSSNSAFVSTSSSRRYTEVYLEHRMQEAVEAERAGRGTGHFIGYIYEVRADNNFYGAASSYFEYVDTYGDNAGRILAGALATYQSGYLAHRRIPPENIRRVTRVYHNGITGETTTTEYSNARYVSQQTRANPNPYTSRRSVASIVGTLVRMAPVIGACMARQAESSEAMAAWSERAGEAMVLVYYESIAYSF
[1]
  binding result: binds

B2: hu1B7mut IgG (hu1B7 heavy chain S56A, Q61A, Q64A) (antibody, V domains shown)
VH: QVQLVQSGAEVKKPGASVKVSCKASGYKFTSYWMHWVRQAPGQGLEWIGNIFPGSGATNYAAKFAGRVTLTVDTSTSTAYMELSSLRSEDTAVYYCTRWLSGAYFDYWGQGTTVTVSS
VL: QIVLTQSPATLSVSPGERVTLTCSASSSVSFMYWYQQKPGRAPKPLIYLTSNLPSGVPARFSGSGSGTSYTLTINSLEAEDAATYYCQQWSSHPPTFGSGTKLEIK
[2]
  binding result: binds

B3: hu1B7 IgG (antibody, V domains shown)
VH: B2 VH with A57S, A62Q, A65Q
VL: B2 VL
[2]
  binding result: binds

B4: hu1B7 Fab (Fab, V domains shown)
VH: B2 VH with A57S, A62Q, A65Q
VL: B2 VL
[3]
  binding result: binds

B5: hu11E6 Fab (Fab, V domains shown)
VH: EVQVVESGGGLVQPGRSLRLSCTTSGFTFTDYYVSWVRQAPGKALEWLGFIRNKVNGYTTEFSSSVKGRFTISRDNSKSILYLQMNSLKIEDTAVYYCARVSYYGRGWYFDYWGQGTTLTVSS
VL: DIVMTQSPSSLSASVGDRVTISCRASQDIDNYLSWFQQKPGGTVKLLIYYTSRLHSGVPSRFSGSGSGTDYTLTISSLQPEDIATYFCQQGNTFPWTFGGGTKLEIK
[4]
  binding result: binds
[5]
  binding result: binds
